Biological target: human C1q (human, UniProt P02745 23-245; P02746 28-253; P02747 29-245)
Assay: cell-based or functional assay

Sequence of human C1q (P02745 23-245 limits assumed, chain 1 of 3): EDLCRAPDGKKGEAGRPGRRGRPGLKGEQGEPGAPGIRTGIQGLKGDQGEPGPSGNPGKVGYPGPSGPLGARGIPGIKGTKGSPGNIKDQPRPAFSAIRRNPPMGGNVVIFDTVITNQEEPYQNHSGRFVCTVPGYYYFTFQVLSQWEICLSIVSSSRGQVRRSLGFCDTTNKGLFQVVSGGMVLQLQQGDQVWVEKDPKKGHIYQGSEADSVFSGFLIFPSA
Sequence of human C1q (P02746 28-253 limits assumed, chain 2 of 3): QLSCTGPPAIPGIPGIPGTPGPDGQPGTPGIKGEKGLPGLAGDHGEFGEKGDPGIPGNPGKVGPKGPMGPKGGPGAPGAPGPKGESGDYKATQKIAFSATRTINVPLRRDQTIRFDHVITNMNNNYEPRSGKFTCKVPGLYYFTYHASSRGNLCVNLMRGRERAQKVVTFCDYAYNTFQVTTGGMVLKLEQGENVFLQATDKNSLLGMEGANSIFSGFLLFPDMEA
Sequence of human C1q (P02747 29-245 limits assumed, chain 3 of 3): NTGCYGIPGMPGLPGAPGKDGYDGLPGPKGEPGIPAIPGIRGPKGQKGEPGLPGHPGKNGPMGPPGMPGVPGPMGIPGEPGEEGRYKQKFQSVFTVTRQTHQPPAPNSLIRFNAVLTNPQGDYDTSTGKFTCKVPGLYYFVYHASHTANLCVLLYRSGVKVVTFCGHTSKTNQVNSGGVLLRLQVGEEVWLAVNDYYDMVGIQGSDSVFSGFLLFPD

B1: FabA (Fab)
heavy: QVQLVQSGAELKKPGASVKVSCKSSGYHFTSYWMHWVKQAPGQGLEWIGVIHPNSGSINYNEKFESRVTITVDKSTSTAYMELSSLRSEDTAVYYCAGERDSTEVLPMDYWGQGTTVTVSSASTKGPSVFPLAPSSKSTSGGTAALGCLVKDYFPEPVTVSWNSGALTSGVHTFPAVLQSSGLYSLSSVVTVPSSSLGTQTYICNVNHKPSNTKVDKKVEPKSCDKTHT
light: DVQITQSPSSLSASLGERATINCRASKSINKYLAWYQQKPGKAPKLLIYSGSTLQSGIPARFSGSGSGTDFTLTISSLEPEDFAMYYCQQHNEYPLTFGQGTKLEIKRTVAAPSVFIFPPSDEQLKSGTASVVCLLNNFYPREAKVQWKVDNALQSGNSQESVTEQDSKDSTYSLSSTLTLSKADYEKHKVYACEVTHQGLSSPVTKSFNRGEC
- IC50 of block of the classical pathway (Weislab ELISA, IgM-coated wells, C5b-9 detection): ≤ 0.3 µg/mL

Source: US20240059765A1 (ANNEXON, published 2024)
